Results: patent US20170115280

Target: reconstituted nascent HDL (rHDL) particle made with isolated human apoA-I (UniProt P02647)
Sequence (P02647 25-267): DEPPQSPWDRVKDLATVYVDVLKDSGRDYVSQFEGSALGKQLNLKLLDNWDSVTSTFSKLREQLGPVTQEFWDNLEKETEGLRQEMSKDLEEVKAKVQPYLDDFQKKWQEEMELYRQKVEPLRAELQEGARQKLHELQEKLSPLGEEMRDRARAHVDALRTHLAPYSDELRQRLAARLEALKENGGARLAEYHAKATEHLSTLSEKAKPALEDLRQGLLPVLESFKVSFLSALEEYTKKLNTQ

Row | Substance | stability of arylesterase activity at 37° C. in the presence of HDL | rate of inactivation of PON1 (arylesterase activity) with EDTA and β-mercaptoethanol in the presence of rHDL
1 | rPON1 Y293K mutant | the Y293K PON1 mutant shows the fastest rate of inactivation | –
2 | rPON1 Y294K mutant | the rate of Y293K loss in activity is faster than either Y294K or WT PON1, and comparison of Y293K vs. Y294K shows significant difference as well | –
3 | rPON1 pan K mutant (Leu9→Lys9, Tyr185→Lys185 and Tyr293→Lys293) with C-terminal His8 tag | – | no protective effects were observed when the pan K rPON1 mutant was incubated with either rHDL or detergent
4 | recombinant paraoxonase 1 (PON1) variant G3C9, His-tagged (rPON1 WT) | when HDL is present, WT PON1 is quite stable at 37 °C | A very slow inactivation of WT rPON1 was observed in the presence of rHDL
